The results in this text go back to patent US20220175942A1.

Among the targets are CCL3L1_HUMAN; CXCL1_HUMAN; CCL23_HUMAN; CCL14_HUMAN; CCL26_HUMAN; CCL24_HUMAN; CCL7_HUMAN; CCL16_HUMAN; CCL21_HUMAN.
What all share (assay): -; previously described evasin

Broadly, the Kd is the constant that tells how readily two partners part at equilibrium. Substance EVASIN1 yielded a dissociation constant Kd in the assay with CCL3L1_HUMAN of 0.05 nM.

In the case of EVASIN3, in the assay with CXCL1_HUMAN, the Kd was found to be 0.85 nM.

EVASIN4: the Kd in the assay with CCL23_HUMAN turned out to be 4.43 nM; with CCL14_HUMAN it was 0.14 nM; with CCL26_HUMAN, 0.88 nM; in the assay with CCL24_HUMAN, 0.41 nM; with CCL7_HUMAN it was 0.7 nM; with CCL16_HUMAN it was 0.26 nM. The Kd in the assay with CCL21_HUMAN was 0.01 nM.
